# Measurements as given in the supplement of paper PMC10567573.
# ± gives the standard deviation.
# Assay: protein stability index of a GFP-peptide fusion (GPS, HEK-293T) (PSI 1-6); higher = more stable
# [1] = treatment: DMSO, c terminus: a fixed tail appended
# [2] = treatment: MLN4924 1 uM, 8 h, c terminus: a fixed tail appended
# [3] = treatment: DMSO, c terminus: native
# [4] = treatment: MLN4924 1 uM, 8 h, c terminus: native
# 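Further: 24-mer peptide tiles fused after GFP, lentivirally expressed, FACS-sorted into six equal bins by GFP/DsRed ratio, decoded by Illumina sequencing, PSI is the read-weighted mean bin number.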
Sequence,protein stability index [1],protein stability index [2],protein stability index [3],protein stability index [4]
LEMRRRCTWSIFQSIEYAGQQDQV [PPEF2],1.92 ± 0.52,2.25 ± 0.1,–,–
LESRIRDVHELFLQMAVLVEKQAD [STX11],2.27 ± 0.35,2.37 ± 0.34,–,–
LEVPKPGQPSEPEHGPSPGQDTFC [CHIT1],5.22 ± 0.17,5.23 ± 0.19,–,–
LGDMQTAREGAGLVVASGVIYCLG [KLHL12],2.47 ± 0.45,2.29 ± 0.8,–,–
LGDSGLGPWQLNVFVCRVSAVLFY [P2RY14],3.32 ± 0.17,2.84 ± 0.42,–,–
LGLRQHHCRKCGQAVCGKCSSKRS [WDFY1],4.28 ± 0.29,4.26 ± 0.29,–,–
LGNLVEGLDFHRFYFENLWSRNSK [CAMK2A],2.2 ± 0.47,2.51 ± 0.24,–,–
LGQILVSVAGWSLFSLNVISLTCV [SLC19A2],3.3 ± 0.26,3.21 ± 0.47,–,–
LGQIVLLPAEARERSRGRSISRGR [MATN2],3.86 ± 0.45,4.21 ± 0.18,–,–
LGRMFGSGREHNFTRPNEKGEYEV [BTBD10],3.95 ± 0.08,3.98 ± 0.25,–,–
LGYQAVPSGSSGSLSTSSSSSPPG [CEBPB],4.78 ± 0.12,4.85 ± 0.14,–,–
LHESYCMDTSHQPLLPAPPKTPMD [LYSMD4],4.65 ± 0.27,4.59 ± 0.11,–,–
LHSSILTCTLLLLYSLAPTMGAVV [MFSD9],3.36 ± 0.4,2.94 ± 0.24,–,–
LHYGLPVVVKLLHPPSHWPLIKAT [CTNNB1],2.3 ± 0.45,2.46 ± 0.42,–,–
LIWSYPAGSLTFPVRPFFYTGHR [TRIM43],–,–,1.97 ± 0.37,2.15 ± 0.11
LKATFSGFTKEQQRLGIPKDPRQW [ETS1],2.75 ± 0.25,2.82 ± 0.36,–,–
LKFDNSYSLWRSKSVYYRVYYTR [ACBD3],–,–,2.52 ± 0.6,2.29 ± 0.71
LKKIKEKDKENKFLCVLMSDWFNF [CLK3],2.14 ± 0.36,2.24 ± 0.24,–,–
LKNPFFRYTGTTPSPPPGSHYTSP [CARM1],2.9 ± 0.16,3.16 ± 0.25,–,–
LKSISAEEILTLFCGAPPVTPIIV [PHTF1],3.16 ± 0.29,2.62 ± 0.53,–,–
LKSLIRLVKHWYQNCKKKLGKLPP [OAS1],2.94 ± 0.36,3.02 ± 0.25,–,–
LLAEREQEEAIAQFPYVEFTGRDS [TMEM106C],4.6 ± 0.27,4.72 ± 0.13,–,–

Sequence,protein stability index [1],protein stability index [2],protein stability index [3],protein stability index [4]
LLAPEAGSHPQQTQKLEEIKENAQ [TOR1AIP2],5.44 ± 0.097,5.47 ± 0.25,–,–
LLCVNYFFYGETVTDYFFTLVQRE [CDS2],2.9 ± 0.36,3.2 ± 0.41,–,–
LLEKNASVNEVDFEGRTPMHVACQ [RIPK4],3.83 ± 0.31,3.94 ± 0.16,–,–
LLGWGYYLIMLPFRFTYYTILDIF [FAF2],4.59 ± 0.36,4.7 ± 0.17,–,–
LLIYTVKIRRFNKAKPEPDILEEE [TMEM192],2.31 ± 0.32,2.29 ± 0.31,–,–
LLKFDNSYSLWRSKSVYYRVYYTR [ACBD3],2.41 ± 0.55,2.49 ± 0.54,–,–
LLLCLKVDNHFNLLTTSPVFPHYI [TRIM43],3.03 ± 0.52,3.08 ± 0.64,–,–
LLMAVVSMFTLPVVYVKHQAQIDQ [RTN1],2.99 ± 0.39,3.32 ± 0.43,–,–
LLQRELMVPGTRHSAVLRDLRSGT [TNXB],2.43 ± 0.3,2.75 ± 0.28,–,–
LLSSSEEECKDRERPMYGRDSAYQ [EMD],4.48 ± 0.23,4.51 ± 0.46,–,–
LMDCCLIVYHPYRPLLQYVQDMGQ [CCNC],3.26 ± 0.83,3.17 ± 0.55,–,–
LMKHKSRKRRLFCTMEPEPVQPGM [TRIM35],3.51 ± 0.49,3.43 ± 0.17,–,–
LMLGKTSISDLSEHVFDLILELYN [PDS5B],2.59 ± 0.33,2.44 ± 0.47,–,–
LNAELEEKMMQEAEKLKAQGEYSR [CCDC89],3.61 ± 0.28,3.71 ± 0.39,–,–
LNTLTLNVKSEKVYTRHGVPISVT [FLOT1],2.51 ± 0.079,2.61 ± 0.21,–,–
LNYLRDGSVPLPESTRELGELLGE [KCTD13],4.5 ± 0.21,4.64 ± 0.24,–,–
LPNHKPKGTFKDYVRDRADLNKDK [ETS1],4.552 ± 0.017,4.74 ± 0.32,–,–
LPQPLAAHAGAVHNGKIYISGGVH [KLHL14],3.17 ± 0.24,3.27 ± 0.3,–,–
LPSNLVQYYDDEKKTWKILTIMPY [KLHL14],2.42 ± 0.33,2.3 ± 0.12,–,–
LPVLRGFPAKYIYDPWNAPEGIQK [CRY1],2.39 ± 0.17,2.28 ± 0.34,–,–
LQSFEDLASISTYGFRGEALASIS [MLH1],2.78 ± 0.16,2.71 ± 0.3,–,–
LQSISWDPEDFEDAWKRPDALPGQ [TLE6],3.98 ± 0.29,3.87 ± 0.43,–,–
